Experimental data from patent US20240279288A1, “APPLICATION OF PLANT JAZ PROTEINS AND DERIVED POLYPEPTIDES IN PREVENTION AND TREATMENT OF HUMAN AND ANIMAL TUMORS” (ANYANG INSTITUTE OF SINO-COTTON INDUSTRY INNOVATION, priority 2021, published 2024).
“Also recorded” adds a separate entry of the source.

B1: GhJAZ1 after deletion of NT domain: GhJAZ1 mutant with NT domain deleted, protein sequence SEQ ID No. 83 (protein)
chain: MSSCSESTAMKPARSPEANGTPVVPPPTMNLFPLNDKSDDVCGRNGGNPKNLTSMDLFPQQAGLASKDDSPNKLEPQTAPMTIFYGGQVIVFNDFPANKAKEIMLLASNSSSQSNNSFNPIPFTSSIARSPIESSIGVPPTSKPVHPAQRAVPGDLPIARRASLHRFLEKRKDRITAKAPYQINNSAAAPSLSGDNKSWLGLAAQSP
B2: GhJAZ1: cotton JAZ1 protein, gene number Gh_A05G0260, sequence SEQ ID No. 4; prokaryotically expressed with His tag, about 30 KD (protein)
chain: MSSCSESTAMKPARSPEKPSFAQTCNLLSQYLKEKGSFGDLSLGMTCNVEANGTPVVPPPTMNLFPLNDKSDDVCGRNGGNPKNLTSMDLFPQQAGLASKDDSPNKLEPQTAPMTIFYGGQVIVFNDFPANKAKEIMLLASNSSSQSNNSFNPIPFTSSIARSPIESSIGVPPTSKPVHPAQRAVPGDLPIARRASLHRFLEKRKDRITAKAPYQINNSAAAPSLSGDNKSWLGLAAQSP
modifications: His tag
notes: prokaryotically expressed with His tag, about 30 KD

Experiments:
GhCOI1 = assay: Yeast two hybrid with GhCOI1; format: binding, cotton; settings: in the presence of JA-Ile
Sequence of GhCOI1 (as listed by the source): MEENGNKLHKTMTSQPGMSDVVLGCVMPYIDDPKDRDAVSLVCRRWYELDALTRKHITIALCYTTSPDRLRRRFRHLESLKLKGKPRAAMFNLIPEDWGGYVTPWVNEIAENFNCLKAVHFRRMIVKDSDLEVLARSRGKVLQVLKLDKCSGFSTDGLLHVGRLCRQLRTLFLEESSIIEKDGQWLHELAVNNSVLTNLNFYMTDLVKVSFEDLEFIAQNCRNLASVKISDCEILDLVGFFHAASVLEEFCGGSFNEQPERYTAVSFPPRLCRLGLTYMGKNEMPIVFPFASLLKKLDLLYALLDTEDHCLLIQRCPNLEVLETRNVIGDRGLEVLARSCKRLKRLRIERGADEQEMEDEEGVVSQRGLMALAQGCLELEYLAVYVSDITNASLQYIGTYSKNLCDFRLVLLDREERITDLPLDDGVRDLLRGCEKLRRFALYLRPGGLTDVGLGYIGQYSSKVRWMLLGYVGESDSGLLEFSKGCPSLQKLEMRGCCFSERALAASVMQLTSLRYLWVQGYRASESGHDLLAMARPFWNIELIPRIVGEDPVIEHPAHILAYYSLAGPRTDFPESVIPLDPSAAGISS
Description: The study on Arabidopsis had shown that the inhibition of JAZ protein on JA signaling was mainly achieved by inhibiting the transcription factor function of MYC, which had been experimentally verified by us in cotton. Based on the phylogenetic tree of Arabidopsis and cotton JAZs, we screened 6 cotton JAZs (GhJAZ1, GhJAZ7, GhJAZ9, GhJAZ10, GhJAZ11 and GhJAZ31), which were analyzed with GhMYC2, GhNINJA, GhTPL, GhHDA6, and GhCOI1 for yeast two hybrid. The amino acid sequence of GhJAZ1 was set forth in SEQ ID No. 4, and the corresponding encoding gene sequence was set forth in SEQ ID No. 39; the amino acid sequence of GhJAZ7 was set forth in SEQ ID No. 7, and the corresponding encoding gene sequence was set forth in SEQ ID No. 42; the amino acid sequence of GhJAZ9 was set forth in SEQ ID No. 2, and the corresponding encoding gene sequence was set forth in SEQ ID No. 37; the amino acid sequence of GhJAZ10 was set forth in SEQ ID No. 3, and the corresponding encoding gene sequence was set forth in SEQ ID No. 38; the amino acid sequence of GhJAZ11 was set forth in SEQ ID No. 5, and the corresponding encoding gene sequence was set forth in SEQ ID No. 40; and the amino acid sequence of GhJAZ31 was set forth in SEQ ID No. 9, and the corresponding encoding gene sequence was set forth in SEQ ID No. 44. The amino acid sequence of GhMYC2 was set forth in SEQ ID No. 71, and the corresponding encoding gene sequence was set forth in SEQ ID No. 72; the amino acid sequence of GhNINJA was set forth in SEQ ID No. 73, and the corresponding encoding gene sequence was set forth in SEQ ID No. 74; the amino acid sequence of GhTPL was set forth in SEQ ID No. 75, and the corresponding encoding gene sequence was set forth in SEQ ID No. 76; the amino acid sequence of GhHDA6 was set forth in SEQ ID No. 77, and the corresponding encoding gene sequence was set forth in SEQ ID No. 78; and the amino acid sequence of GhCOI1 was set forth in SEQ ID No. 79, and the corresponding encoding gene sequence was set forth in SEQ ID No. 80. […]

[1] = test system: breast epithelial cells (MCF10A); assay: CCK8 cell viability detection, MCF10A; format: cell-based; settings: with the increase of GhJAZ1 protein concentration
Description: (§1) CCK8 cell viability detection: cell suspension was seeded in 96-well plates at a concentration of 5×10^4 cells/ml (100 μL/well). The plates were placed in the incubator for pre-culture (at 37° C., 5% CO2), and control and protein agents were added to each well 24 h after seeding. The plates were then placed in the incubator for 24 h, followed by addition of 10 μL CCK8 solution into each well and incubation of the plates in the incubator for 0.5-2 h before the absorbance measurement at 450 nm using a microplate reader.
We constructed GhJAZ1 prokaryotic expression plasmid with His-tag to express proteins (see step 2 in Example 4), and then a GhJAZ1 protein, along with 6 His tags, which was approximately 30 KD in size was found by WB detection (A in FIG. 7). The purified GhJAZ1 protein was used to treat breast cancer cells (MCF7) and breast epithelial cells (MCF10A), and the cell viability was measured with CCK8.

[2] = test system: ovarian cancer cells SKOV3; assay: CCK8 cell viability detection, SKOV3; format: cell-based, human; settings: CCK8, 24 h treatment; read-out: IC50, inhibition of SKOV3 cells
Description: as §1
Analysis of effect of GhJAZ1 protein on the cell cycle and apoptosis of tumor cells

[3] = test system: normal breast epithelial cells MCF10A; assay: Apoptosis detection (Annexin V-FITC/PI), MCF10A; format: cell-based; settings: 0.691 μM, 24 h, vs PBS
Description: Apoptosis detection: cells were collected in 1.5 EP tubes and centrifuged at 300 g for 5 min, with the supernatant discarded, followed by collecting the cells, washing with PBS and resuspending. 1×10^5 resuspended cells were taken and centrifuged at 300 g for 5 min, with the supernatant discarded. The cells were washed with PBS, resuspended by adding 500 μl of diluted 1×Annexin V Binding Buffer working solution, and then a staining solution of 5 μL of Annexin V-FITC and 5 μL of propidium iodide (PI) were added and mixed well by vortex, followed by incubation at room temperature in the dark for 15-20 min, and detection on the instrument. Specifically, the Annexin V-FITC/PI fluorescent dual staining cell apoptosis detection kit (Wuhan Pricella Life Science & Technology Co., Ltd., Cat. No.: P-CA-201) was used.

[4] = test system: downstream genes of c-Myc in MCF7 cells; assay: Transcriptome sequencing and RT-PCR of c-Myc downstream genes, MCF7; format: cell-based, human
Description: Identification at the RNA level: RNA was extracted using RNA extraction kit (RNAprep Pure Polysaccharide Polyphenol Plant Total RNA Extraction Kit (DP441), manufacturer: TIANGEN BIOTECH (BEIJING) CO., LTD.), and then cDNA was obtained using two-step reverse transcription kit (a third-generation premix for two-step de-genomization and reverse transcription, Cat. No.: MR05201). cDNA as a template was added into a 96-well plate, with addition of SYBR®Green I chimeric dye (an antibody dye quantitative PCR premix, Cat. No.: MQ10101) and gene primers for three-step qPCR amplification. Finally, the relative gene expression was calculated based on the Ct value.
And it was validated to be consistent with the transcriptome results (B in FIG. 9) by RT-PCR (the steps of method as Example 1). Wherein, the sequences of RT-PCR primers were as follows: […]
Wherein, the sequences of primers were as follows: […]

c-Myc = c-Myc (Homo sapiens, UniProt P01106); assay: Bimolecular fluorescence complementary experiment with c-Myc; format: binding; parameters: with the full length of c-Myc and NMYC, respectively; expressed in transfected cells; host or cells: yeast Y2HGold; settings: bimolecular fluorescence complementation, YFP signal in the nucleus of tobacco
Sequence of c-Myc (P01106 whole entry): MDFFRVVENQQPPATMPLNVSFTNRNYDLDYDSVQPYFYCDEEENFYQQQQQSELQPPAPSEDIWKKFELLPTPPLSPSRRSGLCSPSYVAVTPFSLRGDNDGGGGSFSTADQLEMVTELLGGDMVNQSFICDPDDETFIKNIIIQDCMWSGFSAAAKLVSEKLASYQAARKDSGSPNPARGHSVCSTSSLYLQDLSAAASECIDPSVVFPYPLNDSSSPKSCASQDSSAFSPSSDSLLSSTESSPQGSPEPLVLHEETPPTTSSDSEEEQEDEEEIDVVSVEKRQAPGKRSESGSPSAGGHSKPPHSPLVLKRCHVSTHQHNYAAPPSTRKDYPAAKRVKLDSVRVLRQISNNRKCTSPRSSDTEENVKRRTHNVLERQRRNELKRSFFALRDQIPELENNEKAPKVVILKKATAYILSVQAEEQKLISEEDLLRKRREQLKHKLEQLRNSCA
Source text: GhJAZ1 (SEQ ID No. 39) was subcloned into pUC-SPYNE vector (Song, Yun, et al. “BIN2 negatively regulates plant defense against Verticillium dahliae in Arabidopsis and cotton.” Plant Biotechnology Journal (2021)) between the BamHI and XbaiI cleavage sites by the bimolecular fluorescence complementary experiment to construct pUC-SPYNE-GhJAZ1. c-Myc (NCBI accession number: NM_002467.6) was subcloned into pUC-SPYCE vector (Song, Yun, et al. “BIN2 negatively regulates plant defense against Verticillium dahliae in Arabidopsis and cotton.” Plant Biotechnology Journal (2021)) between BamHI and XbaiI cleavage sites to construct pUC-SPYCE-c-Myc. […] Testing of inhibitory effect of GhJAZ1 protein on tumor cells

Row | Molecule | interaction with GhCOI1 (GhCOI1) | viability of MCF10A cells [1] | IC50 [2] | effect on apoptosis of normal cells (MCF10A) [3] | expression of cell cycle-related genes (transcriptome, validated by RT-PCR) ([4]; MCF7, 0.691 μM, 24 h) | expression of CCNE1 ([4]; MCF7, RT-PCR) | expression of P21 gene ([4]; MCF7, RT-PCR) | expression of apoptosis related genes Bcl2, BAX, HK2, FASN, MCM5 downstream of c-Myc ([4]; MCF7, RT-PCR) | expression of cell cycle-related genes CCNA2, CCNB1, CCND1 ([4]; MCF7, RT-PCR) | interaction with c-Myc (c-Myc)
1 | B1 | significantly weakened | – | – | – | – | – | – | – | – | –
2 | B2 | interacted | did not change significantly; also recorded: without inhibitory effect | 784 nM | no significant effect | down regulated | extremely significantly upregulated | extremely significantly upregulated | extremely significantly downregulated | extremely significantly downregulated | interaction
